This is an account of results in publication PMC9482650, “Quantitative fragmentomics allow affinity mapping of interactomes” (Nature Communications, 2022).

Targets include TJP2_1, Q9UDY2; Inadl_6, Q8NI35; LNX1_1, Q8TBB1; GRIP2_4, Q9C0E4; MAGI2_3, Q86UL8; DLG4_2, P78352; IL16_4, Q14005; SCRIB_3, Q14160; NHERF4_2, Q86UT5; HTRA2, O43464; FRMPD2_2, Q68DX3; FRMPD2_1, Q68DX3; PDLIM1, O00151; Inadl_1, Q8NI35; LAP2, Q96RT1; TJP1_3, Q07157; Inadl_9, Q8NI35; DLG4_3, P78352.
Test in all cases: holdup assay
Common to all, as to design: key: below the threshold = too weak to quantify, mostly under pKd 3.1 to 4

For another assay, the target named is T1, PDZD2_2, O15018.
T1 sequence (O15018 329-429, limits assumed, looked up): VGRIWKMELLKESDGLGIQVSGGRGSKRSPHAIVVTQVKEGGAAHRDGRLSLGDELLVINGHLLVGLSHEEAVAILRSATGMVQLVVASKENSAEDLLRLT

The target of a further assay is T2, TIAM2, Q8IVF5.
T2 sequence (Q8IVF5 885-986, limits assumed, looked up): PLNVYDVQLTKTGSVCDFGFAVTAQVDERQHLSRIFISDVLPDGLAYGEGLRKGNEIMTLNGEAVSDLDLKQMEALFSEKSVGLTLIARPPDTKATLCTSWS

The target in a further assay is T3, RAPGEF6, Q8TEU7.
T3 sequence (Q8TEU7 525-625, limits assumed, looked up): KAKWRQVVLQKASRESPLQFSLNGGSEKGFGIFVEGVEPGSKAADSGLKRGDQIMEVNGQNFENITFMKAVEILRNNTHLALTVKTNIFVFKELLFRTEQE

The target of another assay is T4, PCLO, Q9Y6V0.
T4 sequence (Q9Y6V0 4491-4600, limits assumed, looked up): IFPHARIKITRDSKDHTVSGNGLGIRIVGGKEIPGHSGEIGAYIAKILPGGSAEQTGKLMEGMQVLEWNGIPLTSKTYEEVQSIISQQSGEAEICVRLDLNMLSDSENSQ

The next assay deals with T5, SNTG1, Q9NSN8.
T5 sequence (Q9NSN8 52-150, limits assumed, looked up): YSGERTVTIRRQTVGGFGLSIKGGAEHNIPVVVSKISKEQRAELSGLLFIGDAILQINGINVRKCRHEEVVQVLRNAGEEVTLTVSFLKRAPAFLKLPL

The next assay has as its target T6, TX1BP3, O14907.
T6 sequence (O14907 10-122, limits assumed, looked up): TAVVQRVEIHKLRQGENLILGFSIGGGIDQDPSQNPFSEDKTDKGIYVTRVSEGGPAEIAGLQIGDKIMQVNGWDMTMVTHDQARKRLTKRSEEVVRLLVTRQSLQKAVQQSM

Another assay deals with T7, LIN7B, Q9HAP6.
T7 sequence (Q9HAP6 88-185, limits assumed, looked up): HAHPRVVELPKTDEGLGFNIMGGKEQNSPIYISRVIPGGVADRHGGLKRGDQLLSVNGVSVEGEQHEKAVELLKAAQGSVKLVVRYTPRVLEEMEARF

For a further assay, the target named is T8, DLG3_1, Q92796.
T8 sequence (Q92796 125-227, limits assumed, looked up): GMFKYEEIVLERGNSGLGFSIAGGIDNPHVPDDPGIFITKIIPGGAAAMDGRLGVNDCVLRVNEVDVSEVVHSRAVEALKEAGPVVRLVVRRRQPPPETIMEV

A further assay concerns the target T9, HTRA3, P83110.
T9 sequence (P83110 354-453, limits assumed, looked up): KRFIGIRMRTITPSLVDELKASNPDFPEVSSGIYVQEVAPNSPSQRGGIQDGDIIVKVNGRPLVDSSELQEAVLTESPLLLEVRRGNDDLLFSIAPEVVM

A further assay has as its target GOPC, Q9HD26. The note with it: plain residues with an end cap or a label only (N-terminal biotin on a linker: ado-ado).
The mark [1] stands for this setting: plain residues with an end cap or a label only (N-terminal biotin on a linker: ado-ado).
Setting [2] is: modified: phospho on T at position -2 from the C-terminal residue.

Chain of DLG4_3, P78352 (P78352 306-403): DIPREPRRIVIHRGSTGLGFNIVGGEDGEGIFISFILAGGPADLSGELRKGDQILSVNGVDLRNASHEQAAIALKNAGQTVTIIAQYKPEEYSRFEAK
Chain of SCRIB_3, Q14160 (Q14160 999-1103): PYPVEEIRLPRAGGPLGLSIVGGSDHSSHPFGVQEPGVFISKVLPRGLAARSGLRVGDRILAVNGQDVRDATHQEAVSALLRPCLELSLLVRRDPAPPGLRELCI
Chain of IL16_4, Q14005 (Q14005 1229-1329): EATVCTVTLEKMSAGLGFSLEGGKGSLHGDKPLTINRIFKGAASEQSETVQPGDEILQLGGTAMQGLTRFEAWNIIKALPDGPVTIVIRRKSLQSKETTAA
Chain of Inadl_9, Q8NI35 (Q8NI35 1530-1615): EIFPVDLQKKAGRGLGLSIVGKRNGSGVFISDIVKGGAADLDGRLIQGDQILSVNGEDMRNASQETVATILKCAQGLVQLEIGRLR
Chain of LAP2, Q96RT1 (Q96RT1 other isoform, or with tags, fused parts or gaps): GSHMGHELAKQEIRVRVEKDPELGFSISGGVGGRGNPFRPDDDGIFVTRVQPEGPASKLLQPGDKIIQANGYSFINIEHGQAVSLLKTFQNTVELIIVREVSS
Chain of HTRA2, O43464 (O43464 355-458): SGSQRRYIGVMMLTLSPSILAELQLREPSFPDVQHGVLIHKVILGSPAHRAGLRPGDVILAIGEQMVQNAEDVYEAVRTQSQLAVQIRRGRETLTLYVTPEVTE
Chain of PDLIM1, O00151 (O00151 1-87): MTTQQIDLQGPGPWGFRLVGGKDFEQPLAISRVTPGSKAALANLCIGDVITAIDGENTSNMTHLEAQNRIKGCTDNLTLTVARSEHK
Chain of TJP2_1, Q9UDY2 (Q9UDY2 24-128): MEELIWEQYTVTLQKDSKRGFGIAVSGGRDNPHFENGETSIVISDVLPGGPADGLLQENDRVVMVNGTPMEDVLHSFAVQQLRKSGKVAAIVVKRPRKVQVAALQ
Chain of Inadl_1, Q8NI35 (Q8NI35 113-229): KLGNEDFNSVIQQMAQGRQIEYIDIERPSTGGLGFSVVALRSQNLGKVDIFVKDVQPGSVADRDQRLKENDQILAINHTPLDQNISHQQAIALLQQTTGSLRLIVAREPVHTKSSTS
Chain of FRMPD2_2, Q68DX3 (Q68DX3 944-1038): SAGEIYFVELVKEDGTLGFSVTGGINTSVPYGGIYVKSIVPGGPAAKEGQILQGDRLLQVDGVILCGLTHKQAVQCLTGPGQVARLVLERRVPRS
Chain of Inadl_6, Q8NI35 (Q8NI35 1058-1167): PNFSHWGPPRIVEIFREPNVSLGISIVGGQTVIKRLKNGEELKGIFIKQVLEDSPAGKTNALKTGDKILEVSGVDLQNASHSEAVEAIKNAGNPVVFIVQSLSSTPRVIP
Chain of GRIP2_4, Q9C0E4 (Q9C0E4 446-548): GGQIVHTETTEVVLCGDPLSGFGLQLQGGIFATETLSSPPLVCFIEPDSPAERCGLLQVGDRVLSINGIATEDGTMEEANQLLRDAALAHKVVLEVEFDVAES
Chain of TJP1_3, Q07157 (Q07157 416-512): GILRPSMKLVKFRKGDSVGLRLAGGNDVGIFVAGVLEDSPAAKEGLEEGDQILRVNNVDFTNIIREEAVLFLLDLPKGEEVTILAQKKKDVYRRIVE
Chain of DLG4_2, P78352 (P78352 155-259): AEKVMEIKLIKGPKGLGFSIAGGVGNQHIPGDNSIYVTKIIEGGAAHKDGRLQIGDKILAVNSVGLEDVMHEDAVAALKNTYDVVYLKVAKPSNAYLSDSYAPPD
Chain of FRMPD2_1, Q68DX3 (Q68DX3 770-861): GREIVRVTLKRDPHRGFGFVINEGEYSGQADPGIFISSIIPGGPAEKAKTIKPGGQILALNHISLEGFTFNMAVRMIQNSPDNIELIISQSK
Chain of LNX1_1, Q8TBB1 (Q8TBB1 261-371): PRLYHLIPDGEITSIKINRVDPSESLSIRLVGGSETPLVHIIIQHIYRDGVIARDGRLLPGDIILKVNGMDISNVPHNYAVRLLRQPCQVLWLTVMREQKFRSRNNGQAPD
Chain of NHERF4_2, Q86UT5 (Q86UT5 220-308): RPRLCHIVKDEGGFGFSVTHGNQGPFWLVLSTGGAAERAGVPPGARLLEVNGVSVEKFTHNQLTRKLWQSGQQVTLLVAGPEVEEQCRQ
Chain of MAGI2_3, Q86UL8 (Q86UL8 600-682): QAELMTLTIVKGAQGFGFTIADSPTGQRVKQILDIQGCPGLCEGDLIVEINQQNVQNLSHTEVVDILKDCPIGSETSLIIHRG

B1: CNTNAP2, Q9UHC6 (peptide)
chain: IDESKKEWLI
With B1, the pKd result with TJP2_1, Q9UDY2 (setting [1]) is “below the threshold”; with PDZD2_2, O15018 (setting [1]), 4.54; in the assay with Inadl_6, Q8NI35 (setting [1]), “below the threshold”; with LNX1_1, Q8TBB1 (setting [1]) it was “below the threshold”; with TIAM2, Q8IVF5 (setting [1]), 3.81; with RAPGEF6, Q8TEU7 (setting [1]), “below the threshold”. Moreover, the pKd entry in the assay with GRIP2_4, Q9C0E4 (setting [1]) was “below the threshold”; in the assay with MAGI2_3, Q86UL8 (setting [1]), 3.5; with DLG4_2, P78352 (setting [1]), “below the threshold”; with IL16_4, Q14005 (setting [1]) it was 3.79; in the assay with SCRIB_3, Q14160 (setting [1]), 3.71; with PCLO, Q9Y6V0 (setting [1]) it was “below the threshold”. The pKd entry is “below the threshold” with SNTG1, Q9NSN8 (setting [1]); “below the threshold” with TX1BP3, O14907 (setting [1]); 3.75 with LIN7B, Q9HAP6 (setting [1]); “below the threshold” with DLG3_1, Q92796 (setting [1]); “below the threshold” in the assay with NHERF4_2, Q86UT5 (setting [1]); 3.49 in the assay with HTRA2, O43464 (setting [1]). Besides, the pKd entry with FRMPD2_2, Q68DX3 (setting [1]) was “below the threshold”; in the assay with FRMPD2_1, Q68DX3 (setting [1]) it was “below the threshold”; in the assay with PDLIM1, O00151 (setting [1]), “below the threshold”; with HTRA3, P83110 (setting [1]), 4.15; in the assay with Inadl_1, Q8NI35 (setting [1]), 3.93; with GOPC, Q9HD26 it was “below the threshold”. In addition, the pKd result in the assay with LAP2, Q96RT1 (setting [1]) is on record as “below the threshold”; in the assay with TJP1_3, Q07157 (setting [1]), “below the threshold”; with Inadl_9, Q8NI35 (setting [1]) it was “below the threshold”; with DLG4_3, P78352 (setting [1]), “below the threshold”.

B2: NF2, P35240;P35240-1 (peptide)
chain: KSRVAFFEEL
For the molecule B2, the negative-log Kd (pKd) entry was “below the threshold” with TIAM2, Q8IVF5 (setting [1]); “below the threshold” in the assay with RAPGEF6, Q8TEU7 (setting [1]); “below the threshold” with PCLO, Q9Y6V0 (setting [1]); “below the threshold” with SNTG1, Q9NSN8 (setting [1]); 4.34 with TX1BP3, O14907 (setting [1]); “below the threshold” with LIN7B, Q9HAP6 (setting [1]). In addition, the pKd result with FRMPD2_2, Q68DX3 (setting [1]) is reported as “below the threshold”; with FRMPD2_1, Q68DX3 (setting [1]), “below the threshold”; with HTRA3, P83110 (setting [1]), “below the threshold”; with Inadl_1, Q8NI35 (setting [1]), “below the threshold”; with LAP2, Q96RT1 (setting [1]), “below the threshold”; in the assay with TJP1_3, Q07157 (setting [1]) it was “below the threshold”. Moreover, the pKd result with Inadl_9, Q8NI35 (setting [1]) is “below the threshold”.

B3: MUC3A, MUC3B, Q02505;Q9H195 (peptide)
chain: KRPEMTSSSV
For the molecule B3, the pKd result with TJP2_1, Q9UDY2 (setting [1]) was “below the threshold”; with Inadl_6, Q8NI35 (setting [1]), “below the threshold”; with LNX1_1, Q8TBB1 (setting [1]) it was 1.88; with TIAM2, Q8IVF5 (setting [1]) it was 1.96; with GRIP2_4, Q9C0E4 (setting [1]), “below the threshold”; in the assay with DLG4_2, P78352 (setting [1]) it was 4.15. Besides, the pKd with IL16_4, Q14005 (setting [1]) was 1.87; with SCRIB_3, Q14160 (setting [1]), 1.79; in the assay with PCLO, Q9Y6V0 (setting [1]), “below the threshold”; in the assay with SNTG1, Q9NSN8 (setting [1]), 4.08; with LIN7B, Q9HAP6 (setting [1]) it was 3.68; with NHERF4_2, Q86UT5 (setting [1]) it was “below the threshold”. Further, the pKd result with HTRA2, O43464 (setting [1]) was “below the threshold”; with PDLIM1, O00151 (setting [1]) it was “below the threshold”; in the assay with HTRA3, P83110 (setting [1]) it was “below the threshold”; with Inadl_1, Q8NI35 (setting [1]) it was “below the threshold”; in the assay with TJP1_3, Q07157 (setting [1]), “below the threshold”; in the assay with Inadl_9, Q8NI35 (setting [1]) it was 3.6. The molecule also registered a pKd in the assay with DLG4_3, P78352 (setting [1]) of 1.91.

B4: HPV16-E6_-2P, P03126 (peptide)
chain: SSRTRRETQL
Consider B4, for which the pKd entry with TJP2_1, Q9UDY2 (setting [2]) is “below the threshold”; with PDZD2_2, O15018 (setting [2]), “below the threshold”; with Inadl_6, Q8NI35 (setting [2]) it was “below the threshold”; with LNX1_1, Q8TBB1 (setting [2]), “below the threshold”; with TIAM2, Q8IVF5 (setting [2]), “below the threshold”; with RAPGEF6, Q8TEU7 (setting [2]), “below the threshold”. Also, the pKd entry with GRIP2_4, Q9C0E4 (setting [2]) is on record as “below the threshold”; in the assay with MAGI2_3, Q86UL8 (setting [2]), “below the threshold”; with DLG4_2, P78352 (setting [2]) it was “below the threshold”; with IL16_4, Q14005 (setting [2]), “below the threshold”; with SCRIB_3, Q14160 (setting [2]) it was “below the threshold”; in the assay with PCLO, Q9Y6V0 (setting [2]) it was “below the threshold”. In addition, the pKd entry is “below the threshold” with SNTG1, Q9NSN8 (setting [2]); 3.98 with TX1BP3, O14907 (setting [2]); “below the threshold” with LIN7B, Q9HAP6 (setting [2]); “below the threshold” with DLG3_1, Q92796 (setting [2]); “below the threshold” in the assay with NHERF4_2, Q86UT5 (setting [2]); “below the threshold” with HTRA2, O43464 (setting [2]). Further, the pKd result with FRMPD2_2, Q68DX3 (setting [2]) is recorded as “below the threshold”; with FRMPD2_1, Q68DX3 (setting [2]), “below the threshold”; with PDLIM1, O00151 (setting [2]) it was “below the threshold”; with HTRA3, P83110 (setting [2]), “below the threshold”; with Inadl_1, Q8NI35 (setting [2]), “below the threshold”; with LAP2, Q96RT1 (setting [2]), “below the threshold”. For the same molecule, the pKd result in the assay with TJP1_3, Q07157 (setting [2]) is “below the threshold”; with Inadl_9, Q8NI35 (setting [2]), “below the threshold”; with DLG4_3, P78352 (setting [2]) it was “below the threshold”.

By pKd is commonly meant −log10 of the Kd, conventionally taken in molar units.
